T1: mouse MAdCAM expressed on cells (mouse, UniProt Q61826 22-405)
T1 construct: whole, on cells
T1 sequence (looked up): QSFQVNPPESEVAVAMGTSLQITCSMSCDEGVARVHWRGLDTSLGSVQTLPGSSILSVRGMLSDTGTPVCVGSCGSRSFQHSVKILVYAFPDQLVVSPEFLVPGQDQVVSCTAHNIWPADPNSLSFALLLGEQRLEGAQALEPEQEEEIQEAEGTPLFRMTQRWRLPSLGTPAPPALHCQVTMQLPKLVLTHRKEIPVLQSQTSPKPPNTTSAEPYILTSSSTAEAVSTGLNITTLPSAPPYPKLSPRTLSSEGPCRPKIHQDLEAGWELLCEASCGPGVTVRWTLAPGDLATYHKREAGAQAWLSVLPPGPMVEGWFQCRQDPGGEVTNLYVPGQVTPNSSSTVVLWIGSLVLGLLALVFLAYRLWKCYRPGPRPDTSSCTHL

B1: MAdCAM antibody Clone ID 47 of Table 6 (scFv) (scFv)
scFv: EVQLLESGGGLVQPGGSLRLSCAASGFSFSDYGMHWVRQAPGKGLEWVSAISGSGGSTYYADSVKGRFTISRDNSKNTLYLQMNSLRAEDTAVYYCARDGGWQPAAILDYWGQGTLVTVSSGGGGSGGGGSGGGGSGGGGSDIQMTQSPSSLSASVGDRVTITCRASQGISNNLNWYQQKPGKAPKLLIYDASNLETGVPSRFSGSGSGTDFTLTISSLQPEDFATYYCQQSYSTPLTFGGGTKVEIK
B2: MAdCAM antibody Clone ID 25 of Table 6 (scFv) (scFv)
scFv: QVQLVQSGAEVKKPGASVKVSCKASGYTLTTWYMYWVRQAPGQGLEWMGWINPNRGATNYAQKFQGRVTMTRDTSTSTVYMELSSLRSEDTAVYYCAKGDLWGAMDVWGQGTLVTVSSGGGGSGGGGSGGGGSGGGGSDIQMTQSPSSLSASVGDRVTITCRASDNIGSWLAWYQQKPGKAPKLLIYAASSLQSGVPSRFSGSGSGTDFTLTISSLQPEDFATYYCQQGYSTPPTFGQGTKVEIK
B3: MAdCAM antibody Clone ID 30 of Table 6 (scFv) (scFv)
scFv: QVQLVQSGAEVKKPGASVKVSCKASGYTLTTWYMYWVRQAPGQGLEWMGWINPNRGATNYAQKFQGRVTMTRDTSTSTVYMELSSLRSEDTAVYYCAKGDLWGAMDVWGQGTLVTVSSGGGGSGGGGSGGGGSGGGGSDIQMTQSPSSLSASVGDRVTITCRASDNIGSWLAWYQQKPGKAPKLLIYAASSLQSGVPSRFSGSGSGTDFTLTISSLQPEDFATYYCQQGYSTPPTFGQGTKVEIK
B4: MAdCAM antibody Clone ID 56 of Table 6 (scFv) (scFv)
scFv: EVQLLESGGGLVQPGGSLRLSCAASGFTFDDYAMHWVRQAPGKGLEWVSAISGGGEDTYYADSVKGRFTISRDNSKNTLYLQMNSLRAEDTAVYYCARDASYGGNYGMDVWGQGTTVTVSSGGGGSGGGGSGGGGSGGGGSDIQMTQSPSSLSASVGDRVTITCQASQDIRNYLNWYQQKPGKAPKLLIYKASSLESGVPSRFSGSGSGTDFTLTISSLQPEDFATYYCQQANSYPVTFGGGTKVEIK
B5: MAdCAM antibody Clone ID 56 of Table 7 (IgG) (antibody, V domains shown)
VH: EVQLVESGGGLVKPGGSLRLSCAASGFTFSSYWMSWVRQAPGKGLEWVSAIGTGGGTYYAAPVKGRFTISRDDSKNTLYLQMNSLKTEDTAVYYCAREWLVPYYGMDVWGQGTTVTVSS
VL: DIQMTQSPSSLSASVGDRVTITCRASQSISRWLAWYQQKPGKAPKLLIYGASNLQSGVPSRFSGSGSGTDFTLTISSLQPEDFATYYCQQSYSTPWTFGQGTKVEIK
notes: IgG format
B6: MAdCAM antibody Clone ID 72 of Table 7 (IgG) (antibody, V domains shown)
VH: QVQLVQSGAEVKKPGASVKVSCKASGYTFTSYYMHWVRQAPGQGLEWMGVINPIGGTTTYAQKFQGRVTMTRDTSTSTVYMELSSLRSEDTAVYYCASGAPSYYYYGMDVWGQGTLVTVSS
VL: DIQMTQSPSSLSASVGDRVTITCRASQSISSYLNWYQQKPGKAPKLLIYGTSYLATGVPSRFSGSGSGTDFTLTISSLQPEDFATYYCQQSYSTPLTFGQGTKVEIK
notes: IgG format
B7: MAdCAM antibody Clone ID 67 of Table 7 (IgG) (antibody, V domains shown)
VH: QVQLVQSGAEVKKPGASVKVSCKASGYTFTGYYMHWVRQAPGQGLEWMGMIYPRDGSTSYAQKFQGRVTMTRDTSTSTVYMELSSLRSEDTAVYYCAMTGWGYGMDVWGKGTTVTVSS
VL: DIQMTQSPSSLSASVGDRVTITCRASQGINNYLAWYQQKPGKAPKLLIYDASTLQSGVPSRFSGSGSGTDFTLTISSLQPEDFATYYCQQSYSAPPTFGQGTKLEIK
notes: IgG format
B8: MAdCAM antibody Clone ID 71 of Table 7 (IgG) (antibody, V domains shown)
VH: QVQLVQSGAEVKKPGASVKVSCKASGYTFTSYYMHWVRQAPGQGLEWMGIINPSGGSTSYAQKFQGRVTMTRDTSTSTVYMELSSLRSEDTAVYYCARDSVAGTGGRYYGMDVWGQGTLVTVSS
VL: DIQMTQSPSSLSASVGDRVTITCRASQGISNYFAWYQQKPGKAPKLLIYAASSLQGGVPSRFSGSGSGTDFTLTISSLQPEDFATYYCQQSYSLPYTFGQGTKLEIK
notes: IgG format
B9: MAdCAM antibody Clone ID 80 of Table 7 (IgG) (antibody, V domains shown)
VH: EVQLLESGGGLVQPGGSLRLSCAASGFTFDDYAMHWVRQAPGKGLEWVSAISGSGGSTYYADSVKGRFTISRDNSKNTLYLQMNSLRAEDTAVYYCAKDLGVVVPAALDYWGQGTTVTVSS
VL: DIQMTQSPSSLSASVGDRVTITCQASQDISNHLNWYQQKPGKAPKLLIYDASNLEAGVPSRFSGSGSGTDFTLTISSLQPEDFATYYCQQSYSTPLTFGGGTKVEIK
notes: IgG format
B10: MAdCAM antibody Clone ID 70 of Table 7 (IgG) (antibody, V domains shown)
VH: QVQLVQSGAEVKKPGASVKVSCKASGYPFTDYYMHWVRQAPGQGLEWMGWIKPNSGDTEYAQKFQGRVTMTRDTSTSTVYMELSSLRSEDTAVYYCARDRFVGKPDYYYYGMDVWGQGTMVTVSS
VL: DIQMTQSPSSLSASVGDRVTITCRASQSISVWLAWYQQKPGKAPKLLIYAASSLQSGVPSRFSGSGSGTDFTLTISSLQPEDFATYYCQQSYDTPYTFGQGTKLEIK
notes: IgG format
B11: MAdCAM antibody Clone ID 61 of Table 7 (IgG) (antibody, V domains shown)
VH: QVQLVQSGAEVKKPGASVKVSCKASGDTFTGYYIHWVRQAPGQGLEWMGWINPNSGGTNYAQKFQGRVTMTRDTSTSTVYMELSSLRSEDTAVYYCARSGLWLGSYYGMDVWGQGTLVTVSS
VL: DIQMTQSPSSLSASVGDRVTITCRASQTISIWLAWYQQKPGKAPKLLIYDASTLQSGVPSRFSGSGSGTDFTLTISSLQPEDFATYYCQQYSSYPLTFGQGTKVEIK
notes: IgG format
B12: MAdCAM antibody Clone ID 26 of Table 7 (IgG) (antibody, V domains shown)
VH: EVQLLESGGGLVQPGGSLRLSCAASGFTFSSYAMSWVRQAPGKGLEWVSYISSSSTYTNYADSVKGRFTISRDNSKNTLYLQMNSLRAEDTAVYYCARANSSSWYDWYFDLWGQGTLVTVSS
VL: not shown
notes: IgG format
B13: MAdCAM antibody Clone ID 27 of Table 7 (IgG) (antibody, V domains shown)
VH: EVQLLESGGGLVQPGGSLRLSCAASGFTFSSYQMSWVRQAPGKGLEWVSYISSSSTYTNYADSVKGRFTISRDNSKNTLYLQMNSLRAEDTAVYYCARANSSSWYDWYFDLWGQGTLVTVSS
VL: not shown
notes: IgG format
B14: MAdCAM antibody Clone ID 69 of Table 7 (IgG) (antibody, V domains shown)
VH: QVQLVQSGAEVKKPGASVKVSCKASGYTFTSYYMHWVRQAPGQGLEWMGIIDPSGGSTSYAQKFQGRVTMTRDTSTSTVYMELSSLRSEDTAVYYCAREEWSSGGVGYFDYWGQGTLVTVSS
VL: DIQMTQSPSSLSASVGDRVTITCRASQGISSYLAWYQQKPGKAPKLLIYATSSLQTGVPSRFSGSGSGTDFTLTISSLQPEDFATYYCQQTYSIPITFGQGTRLEIK
notes: IgG format
B15: MAdCAM antibody Clone ID 63 of Table 7 (IgG) (antibody, V domains shown)
VH: EVQLLESGGGLVQPGGSLRLSCAASGFTFNNYGMNWVRQAPGKGLEWVSRINSDGSSTSYADSVKGRFTISRDNSKNTLYLQMNSLRAEDTAVYYCARGAYYYYYMDVWGQGTLVTVSS
VL: EIVMTQSPATLSVSPGERATLSCRASQSVSGSYLAWYQQKPGQAPRLLIYATSSRASGIPARFSGSGSGTEFTLTISSLQSEDFAVYYCQQYYSGLTFGQGTKVEIK
notes: IgG format
B16: MAdCAM antibody Clone ID 62 of Table 7 (IgG) (antibody, V domains shown)
VH: QVQLVQSGAEVKKPGASVKVSCKASGYTFTSYDINWVRQAPGQGLEWMGWINPNSGTTGYAQKFQGRVTMTRDTSTSTVYMELSSLRSEDTAVYYCARSPYYYYGMDVWGQGTTVTVSS
VL: DIQMTQSPSSLSASVGDRVTITCRASHFISRWVAWYQQKPGKAPKLLIYAASTLQSGVPSRFSGSGSGTDFTLTISSLQPEDFATYYCQQSYSGISFGPGTKVDIK
notes: IgG format
B17: MAdCAM antibody Clone ID 68 of Table 7 (IgG) (antibody, V domains shown)
VH: EVQLLESGGGLVQPGGSLRLSCAASGFTFGDYAMSWVRQAPGKGLEWVAVVSYDGTNKYYADSVKGRFTISRDNSKNTLYLQMNSLRAEDTAVYYCAKDICSSTSCYFDLWGRGTLVTVSS
VL: DIQMTQSPSSLSASVGDRVTITCRASQNINNYVNWYQQKPGKAPKLLIYDASNLETGVPSRFSGSGSGTDFTLTISSLQPEDFATYYCQQANSFPPTFGQGTRLEIK
notes: IgG format
B18: MAdCAM antibody Clone ID 64 of Table 7 (IgG) (antibody, V domains shown)
VH: EVQLLESGGGLVQPGGSLRLSCAASGFTFSNSDMNWVRQAPGKGLEWVAHIWNDGSQKYYADSVKGRFTISRDNSKNTLYLQMNSLRAEDTAVYYCARDRTDPGYSSAMDVWGQGTTVTVSS
VL: DIQMTQSPSSLSASVGDRVTITCRASQDIRNYLGWYQQKPGKAPKLLIYDASSLETGVPSRFSGSGSGTDFTLTISSLQPEDFATYYCQQATSLPLTFGGGTKVEIK
notes: IgG format
B19: MAdCAM antibody Clone ID 73 of Table 7 (IgG) (antibody, V domains shown)
VH: QVQLVQSGAEVKKPGASVKVSCKASGYTFTSNYVHWVRQAPGQGLEWMGRINPHSGDTSYAQKFQGRVTMTRDTSTSTVYMELSSLRSEDTAVYYCARAGQLWSDWYFDLWGRGTLVTVSS
VL: DIQMTQSPSSLSASVGDRVTITCQASQDIRNYLNWYQQKPGKAPKLLIYAATALRTGVPSRFSGSGSGTDFTLTISSLQPEDFATYYCQQSYSHPLTFGQGTKVEIK
notes: IgG format
B20: MAdCAM antibody Clone ID 66 of Table 7 (IgG) (antibody, V domains shown)
VH: QVQLVQSGAEVKKPGASVKVSCKASGYTFTGHYMHWVRQAPGQGLEWMGIINPSGGSTSYAQKFQGRVTMTRDTSTSTVYMELSSLRSEDTAVYYCARDGAWFGEEYYYGMDVWGQGTTVTVSS
VL: DIQMTQSPSSLSASVGDRVTITCRASQGISNWLAWYQQKPGKAPKLLIYDASNLETGVPSRFSGSGSGTDFTLTISSLQPEDFATYYCQQYYSFPLYTFGQGTKVEIK
notes: IgG format
B21: MAdCAM antibody Clone ID 9 of Table 7 (IgG) (antibody, V domains shown)
VH: QVQLVQSGAEVKKPGASVKVSCKASGYTFTSYYMHWVRQAPGQGLEWMGIINHSGGSTSYAQKFQGRVTMTRDTSTSTVYMELSSLRSEDTAVYYCARPYSGWYFAFDIWGQGTLVTVSS
VL: not shown
notes: IgG format

Target: T1, mouse MAdCAM expressed on cells
Assay: cell binding

Binding result, no binding:
B1
B2
B3
B4

Target: T1, mouse MAdCAM expressed on cells
Assay: cell binding
Remark: another data set of the same source

Binding result, no binding:
B5
B6
B7
B8
B9
B10
B11
B12
B13
B14
B15
B16
B17
B18
B19
B20
B21

Reference: patent US20200392228A1 (PANDION OPERATIONS, published 2020)
